In test [1] the target is T1, Tumour Necrosis Factor-beta (human, UniProt P01374 35-205).
T1 construct: also called TNFβ; TNF-β
T1 sequence (looked up): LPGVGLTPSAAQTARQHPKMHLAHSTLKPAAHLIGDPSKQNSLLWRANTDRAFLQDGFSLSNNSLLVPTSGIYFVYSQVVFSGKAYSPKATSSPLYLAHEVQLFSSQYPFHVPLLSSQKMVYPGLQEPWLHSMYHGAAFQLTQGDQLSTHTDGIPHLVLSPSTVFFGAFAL
As to the kind of experiment: phage ELISA. As for the experimental part:
(§1) To determine the specificity of the 48 scFvs, a phage ELISA was performed against human and mouse BLyS, and a panel of related and unrelated human antigens: Fas ligand, TRAIL, TNFα, TNFβ, and PBS. The: Fas ligand, TRAIL, TNFα, and TNFβ antigens were obtained from R&D Systems, Minneapolis, Minn. Individual E. coli colonies containing phagemid were inoculated into 5 ml 2YTAG and incubated at 37° C. for 4 hours, shaking. M13KO7 helper phage (Pharmacia) was added to each tube to a MOI of 10 and incubated […] 1 hour, the first 30 minutes static and the final 30 minutes with gentle shaking. Cells were pelleted by centrifugation at 3,500 rpm for 10 minutes and the supernatant discarded. Cell pellets were resuspended in 5 ml 2TYAK and incubated at 30° C. overnight with shaking. The next day, the cells were pelleted by centrifugation at 3,500 rpm for 10 minutes. The phage-containing supernatant (5 ml) was carefully transferred to a fresh tube, 1 ml of 6MPBS was added, and the tube was incubated at room temperature for 1 hour to pre-block the phage prior to ELISA.
(§2) All antigens were coated at 1 μg/ml. ELISAs were performed essentially as described in Example 2. The only exception to this being the detection of phage antibody binding to mouse BLyS where the step involving incubation with the HRP-labelled anti-mouse polymer was omitted. Binding to mouse BLyS was detected with TMB as in Example 2.

Test [2] has as its target T2, Tumour Necrosis Factor-alpha (human, UniProt P01375 77-233).
T2 construct: also called TNFα; TNF-α
As to the kind of experiment: phage ELISA. As for the experimental part:
as §1, §2
In general terms: ELISA stands for enzyme-linked immunosorbent assay.

Test [3] addresses T3, mouse membrane-bound BLyS on P388 plasma membranes (mouse, UniProt Q9WU72 1-309).
T3 construct: whole, on cells; Plasma membrane preparations, not intact cells
As to the kind of experiment: competition phage ELISA on P388 membranes. As to the method: The ability of the 5 scFvs listed in Table 8 to also recognize murine membrane-bound BLyS was determined using a competition ELISA. This assay assesses the ability of test phage scFvs to bind to the membrane-bound form of BLyS on the murine cell line, P388, plasma membranes in the presence of different forms of competing human BLyS. Competing BLyS was either presented as the His-tagged form of BLyS, or soluble BLyS. ScFvs that recognize mouse membrane-bound BLyS would give an ELISA signal on the P388 plasma membranes that is competed out by pre-incubation with HIS-tagged BLyS but not by pre-incubation with soluble BLyS.
P388 plasma membranes (50 μl per well) were coated at 10 μg/ml in PBS onto Falcon 96-well plates overnight at 4° C. The method is otherwise essentially as described Example 16.

T3 sequence (Q9WU72 whole entry): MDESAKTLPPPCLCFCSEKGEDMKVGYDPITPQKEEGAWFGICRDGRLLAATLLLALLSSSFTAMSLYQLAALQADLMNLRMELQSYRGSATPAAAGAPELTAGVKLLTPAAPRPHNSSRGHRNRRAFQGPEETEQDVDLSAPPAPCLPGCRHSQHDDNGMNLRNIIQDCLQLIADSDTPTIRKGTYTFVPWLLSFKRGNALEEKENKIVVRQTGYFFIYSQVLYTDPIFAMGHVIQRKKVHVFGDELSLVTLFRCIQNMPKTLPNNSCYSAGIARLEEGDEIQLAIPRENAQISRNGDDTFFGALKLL
T2 sequence (P01375 77-233 limits assumed): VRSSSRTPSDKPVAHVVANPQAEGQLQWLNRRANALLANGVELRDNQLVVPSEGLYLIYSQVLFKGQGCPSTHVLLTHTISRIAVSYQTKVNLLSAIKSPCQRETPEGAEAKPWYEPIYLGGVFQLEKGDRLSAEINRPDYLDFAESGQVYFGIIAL

B1: I016F04 (scFv)
scFv: QVQLQQSGSELKKPGASVKVSCKVSGYSLTKMSMHWVRQSPGEGLEWVGGIDPETRQPVYAQKFQGRVTITKDTSASAAYMELSSLGSEDTALYYCARATYDPLTGYSFDGFDIWGQGTLVTVSSGGGGSGGGGSGGGGSQSVLTQPASVSGSPGQSITISCTGTSSDVGGYNYVSWYQQHPGKAPKLMIYEGSKRPSGVSNRFSGSKSGNTASLTISGLQAEDEADYYCSSYTTRSTRVFGGGTKLTVLG
B1: the binding result in test [1] is given as “no binding”.

B2: I050A07 (scFv)
scFv: QVQLVQSGAEVKKPGASMKVSCKASAGRASAYGFAMHPIHWVRQAPGQGLEWMGWINGGTGNTKYSEKFLGRVTMTSDTSATTAYMELSSLRSEDTAVYYCARQDNDPLTGYKLGFDYWGKGTLVTVSSGGGGSGGGGSGGGGSAQSVVTQPPSVSGAPGQRVTISCTGSSTNVGAGYGVHWYQQFPETAPKLLIYGGSNRPSGVPDRFSGSQSGTSASLAITGLQAEDEADYYCQSYDTTLSGYVFGTGTKVTVLG
Turning to B2, in test [2], the binding result is “no binding”.

B3: I082H08 (scFv)
scFv: EVQLVESGGGLVQPGGSLRLSCAASGFTFSDYGMHWVRQRPGKGLEWIAFIGSDGSNKYYGDTVKGRFTISRDNAKNSLYLQMNSLRAEGTAVYYCARDWDMDVWGQGTMVTVSSGGGGSGGGGSGGGGSSHVILTQPRSVSGSPGQSVTISCTGTSSDVGGYHYVSWYQQHPGKAPRLMIYEVTKRPSGVSNRFSGSKSGNTASLTISGVQAEDEADYYCSSYTSASTVIFGGGTKLTVLG
Regarding B3, the binding result in test [3] was “binds”.

B4: I001C09 (scFv)
scFv: GVQLVQSGPEVKKPGASVKVSCTASGYTFTSYGVSWVRQAPGQGLEWIGWISAHNGQTKYAEKFQGRVTMTRNTSISTAYMELSSLRSEDTAVYYCARDGSYDILTGYYIDNYMDVWGKGTMVTVSSGGGGSGGGGSGGGGSSELTQDPAVSVALGQTVRITCQGDSLRSYYTNWFQQKPGQAPLLVVYAKNKRPSGIPDRFSGSSSGNTASLTITGAQAEDEADYYCHSRDSSGNHVLFGGGTKLTVLG
In the case of B4, the binding result in test [2] is recorded as “no binding”.

B5: I099D03 (scFv)
scFv: QVQLVQSGAEVKKPGASVRVSCKSSGYTFTNYGISWVRQAPGQGLEWMGWISNNNGKTYYAQKVQGRVTMTTDTSTSTDYMELRGLRSDDTAIYYCARDNGGGTIGFDYWGRGTLVTVSSGGGGSGGGGSGGGGSAQAVLTQPSSVSGAPGQRVTMSCTGSSSNIGAGYDVHWYQQLPGTAPKLLIYDNTNRPSGVPDRFSGSRSGTSASLAITGLQAEDEADYFCQSYDITLSAVFGTGTKVTVLG
Regarding B5, the binding result in test [3] was “binds”.

B6: I079E02 (scFv)
scFv: QVQLVQSGAEVKKPGSSVKVSCKASGGTFSSYAISWVRQAPGQGLEWMGGIIPIFGTANYAQKFQGRVTITADKSTSTAYMELSSLRSDDTAVYYCARDSGSYYYDAFDIWGKGTMVTVSSGGGGSGGGGSGGGGSDIVMTQSPSTLSASVGDRVTITCRASQGISSWLAWYQQKPGKAPKLLIYAASSLQSGVPSRFSGSGSGTDFTLTISSLQPEDFATYYCQQANSFPLTFGGGTKVEIKR
Turning to B6, in test [3], the binding result is “binds”.

Source of the values: patent US20030223996A1 (published 2003).
